Source: patent US20040136998A1 (published 2004)

Target: T1, prostate specific membrane antigen (PSMA) (human, UniProt Q04609 1-750)
T1 construct: whole, on cells; Target in all assays is PSMA on LNCaP (LNCap) cells or LNCaP membrane preparation; also called human PSMA
Assay: ELISA on plates coated with LNCap membrane preparation; purified antibody; reference: J415 chimeric antibody

T1 sequence (Q04609 whole entry): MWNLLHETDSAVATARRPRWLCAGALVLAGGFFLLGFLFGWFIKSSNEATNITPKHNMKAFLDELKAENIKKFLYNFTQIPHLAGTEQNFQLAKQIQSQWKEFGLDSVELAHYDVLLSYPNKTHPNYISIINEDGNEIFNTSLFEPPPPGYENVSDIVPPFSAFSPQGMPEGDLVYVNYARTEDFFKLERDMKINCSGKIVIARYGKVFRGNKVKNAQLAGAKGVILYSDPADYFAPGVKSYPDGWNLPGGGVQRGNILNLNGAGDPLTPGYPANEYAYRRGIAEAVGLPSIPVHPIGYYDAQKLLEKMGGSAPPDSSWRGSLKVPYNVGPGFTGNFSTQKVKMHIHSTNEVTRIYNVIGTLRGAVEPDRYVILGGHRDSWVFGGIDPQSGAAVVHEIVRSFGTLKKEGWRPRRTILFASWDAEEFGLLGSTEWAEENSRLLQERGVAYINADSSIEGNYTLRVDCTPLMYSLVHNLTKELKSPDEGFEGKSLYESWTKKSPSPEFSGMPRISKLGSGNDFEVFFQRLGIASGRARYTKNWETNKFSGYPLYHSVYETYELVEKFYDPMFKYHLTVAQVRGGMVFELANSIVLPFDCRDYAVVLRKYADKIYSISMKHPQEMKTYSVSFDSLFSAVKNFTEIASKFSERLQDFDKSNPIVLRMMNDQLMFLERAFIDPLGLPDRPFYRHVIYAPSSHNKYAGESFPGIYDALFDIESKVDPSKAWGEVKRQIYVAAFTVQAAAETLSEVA

fold less binding than the chimeric antibody: 2 fold
B1: deimmunized J415 antibody, heavy chain version 2 with light chain version 5 (antibody, V domains shown)
VH: EVKLEESGGGLVQPGGSMKISCVASGFTFSNYWMNWVRQTPEKGLEWVALIRSQSNNFATHYAESVKGRVIISRDDSKSSVYLQMNSLRAEDTAVYYCTRRWNNFWGQGTTVTVSS
VL: NIVMTQFPKSMSASAGERMTLTCKASENVGTYVSWYQQKPTQSPKMLIYGASNRFTGVPDRFSGSGSGTDFILTISSVQAEDLVDYYCGQSYTFPYTFGGGTKLEMK
